Assay results as given in patent CN114031685A.

Legend:
[1] = target: SARS-CoV-2 Alpha株 S-ECD蛋白 (SARS-CoV-2 Alpha株 (B.1.1.7))
[2] = target: SARS-CoV-2 Beta株 S-ECD蛋白 (SARS-CoV-2 Beta株 (B.1.351))
[3] = target: SARS-CoV-2 Delta株 S-ECD蛋白 (SARS-CoV-2 Delta株 (B.1.617.2))
[4] = target: SARS-CoV-2 Gamma株 S-ECD蛋白 (SARS-CoV-2 Gamma株 (P.1))
[5] = target: SARS-CoV-2 Omicron株 S-ECD蛋白 (SARS-CoV-2 Omicron株 (B.1.1.529))

B1: 抗SARS-CoV-2全人源单克隆抗体ZW2G10 (antibody, V domains shown)
VH: EVQLVESGGGLVQPGRSLRLSCAASGFTFDDYAMHWVRQAPGKGLEWVSGITWNSGTIGYADSVKGRFIISRDNAKNSLHLQMNSLRVEDTALYYCAKDNSDYSGYYWELENYGMDVWGQGTTVTVSS
VL: QSVLTQPPSVSGAPGQRVTISCTGSSSNIGAGYDVHWYQQLPGTAPKLLIYDNNNRPSGVPDRFSGSKSGTSASLAITGLQAEDEADYYCQSFDSSLSGVVFGGGTRLTVLR
[1]
  Kd: 166 pM
[2]
  Kd: 518 pM
[3]
  Kd: 5450 pM
[4]
  Kd: 615 pM
[5]
  Kd: 765 pM
